The results in this text go back to US20260242735A1 (UNIVERSIT T BASEL, published 2026).

Experiment in all cases: alanine scan, flow cytometry, HEK293-T;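 further: antibody binding to each alanine-substituted CD33 mutant expressed transiently in HEK293-T, read as fluorescence minus background, mean of duplicates, relative to wild-type CD33 set as 100%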
The target of assay [1] is human CD33 G172A (human, UniProt P20138 18-364).
For assay [2], the target named is human CD33 P175A (human, UniProt P20138 18-364).
human CD33 P175A, sequence (P20138 18-364 P175A limits assumed): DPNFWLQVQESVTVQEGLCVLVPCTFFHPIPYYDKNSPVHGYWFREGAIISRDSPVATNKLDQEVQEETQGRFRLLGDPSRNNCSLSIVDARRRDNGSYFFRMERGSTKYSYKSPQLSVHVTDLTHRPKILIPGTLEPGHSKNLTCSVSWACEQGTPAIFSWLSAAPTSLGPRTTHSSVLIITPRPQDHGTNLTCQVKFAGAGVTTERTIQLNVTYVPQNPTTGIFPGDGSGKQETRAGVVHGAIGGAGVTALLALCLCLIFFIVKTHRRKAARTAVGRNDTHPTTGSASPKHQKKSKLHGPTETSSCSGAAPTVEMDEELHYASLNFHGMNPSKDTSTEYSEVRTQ
In assay [3] the target is human CD33 I176A (human, UniProt P20138 18-364).
human CD33 I176A, sequence (P20138 18-364 I176A limits assumed): as the sequence (P20138 18-364 P175A limits assumed) above, with A158P, I159A counted along it
In assay [4] the target is human CD33 S178A (human, UniProt P20138 18-364).
The target in assay [5] is human CD33 A182S (human, UniProt P20138 18-364).
Assay [6] has as its target human CD33 L187A (human, UniProt P20138 18-364).
The target of assay [7] is human CD33 G188A (human, UniProt P20138 18-364).
human CD33 G188A, sequence (P20138 18-364 G188A limits assumed): as the sequence (P20138 18-364 P175A limits assumed) above, with A158P, G171A counted along it
Assay [8] addresses human CD33 T191A (human, UniProt P20138 18-364).
Assay [9] has as its target human CD33 H193A (human, UniProt P20138 18-364).
In assay [10] the target is human CD33 S195A (human, UniProt P20138 18-364).
For assay [11], the target named is human CD33 V196A (human, UniProt P20138 18-364).
human CD33 V196A, sequence (P20138 18-364 V196A limits assumed): as the sequence (P20138 18-364 P175A limits assumed) above, with A158P, V179A counted along it
Assay [12] deals with human CD33 G207A (human, UniProt P20138 18-364).
In assay [13] the target is human CD33 G220A (human, UniProt P20138 18-364).
human CD33 G220A, sequence (P20138 18-364 G220A limits assumed): as the sequence (P20138 18-364 P175A limits assumed) above, with A158P, G203A counted along it
Assay [14] addresses human CD33 E224A (human, UniProt P20138 18-364).
The target in assay [15] is human CD33 V231A (human, UniProt P20138 18-364).
human CD33 V231A, sequence (P20138 18-364 V231A limits assumed): as the sequence (P20138 18-364 P175A limits assumed) above, with A158P, V214A counted along it
Assay [16] has as its target human CD33 Y233A (human, UniProt P20138 18-364).
For assay [17], the target named is human CD33 V234A (human, UniProt P20138 18-364).
human CD33 V234A, sequence (P20138 18-364 V234A limits assumed): as the sequence (P20138 18-364 P175A limits assumed) above, with A158P, V217A counted along it
Assay [18] concerns the target human CD33 P235A (human, UniProt P20138 18-364).
Assay [19] deals with human CD33 N237A (human, UniProt P20138 18-364).
Assay [20] addresses human CD33 T240A (human, UniProt P20138 18-364).
Assay [21] addresses human CD33 Q171A (human, UniProt P20138 18-364).
Assay [22] addresses human CD33 Q251A (human, UniProt P20138 18-364).
Assay [23] addresses human CD33 E252A (human, UniProt P20138 18-364).
The target of assay [24] is human CD33 T253A (human, UniProt P20138 18-364).
In assay [25] the target is human CD33 G260A (human, UniProt P20138 18-364).
Assay [26] has as its target human CD33 G263A (human, UniProt P20138 18-364).
The target of assay [27] is human CD33 T268A (human, UniProt P20138 18-364).
Assay [28] concerns the target human CD33 L270A (human, UniProt P20138 18-364).
Assay [29] addresses human CD33 L271A (human, UniProt P20138 18-364).
In assay [30] the target is human CD33 L273A (human, UniProt P20138 18-364).
Assay [31] concerns the target human CD33 L277A (human, UniProt P20138 18-364).
Assay [32] addresses human CD33 R291A (human, UniProt P20138 18-364).
The target in assay [33] is human CD33 A293S (human, UniProt P20138 18-364).
Assay [34] deals with human CD33 P301A (human, UniProt P20138 18-364).
Assay [35] deals with human CD33 K312A (human, UniProt P20138 18-364).
In assay [36] the target is human CD33 D246A (human, UniProt P20138 18-364).

human CD33 P235A, sequence (P20138 18-364 P235A limits assumed): as the sequence (P20138 18-364 P175A limits assumed) above, with A158P, P218A counted along it
human CD33 G172A, sequence (P20138 18-364 G172A limits assumed): as the sequence (P20138 18-364 P175A limits assumed) above, with G155A, A158P counted along it
human CD33 L187A, sequence (P20138 18-364 L187A limits assumed): as the sequence (P20138 18-364 P175A limits assumed) above, with A158P, L170A counted along it
human CD33 T191A, sequence (P20138 18-364 T191A limits assumed): as the sequence (P20138 18-364 P175A limits assumed) above, with A158P, T174A counted along it
human CD33 H193A, sequence (P20138 18-364 H193A limits assumed): as the sequence (P20138 18-364 P175A limits assumed) above, with A158P, H176A counted along it
human CD33 T240A, sequence (P20138 18-364 T240A limits assumed): as the sequence (P20138 18-364 P175A limits assumed) above, with A158P, T223A counted along it
human CD33 E224A, sequence (P20138 18-364 E224A limits assumed): as the sequence (P20138 18-364 P175A limits assumed) above, with A158P, E207A counted along it

B1: Refmab #1 (antibody, V domains shown)
VH: EVQLVQSGAEVKKPGSSVKVSCKASGYTITDSNIHWVRQAPGQSLEWIGYIYPYNGGTDYNQKFKNRATLTVDNPTNTAYMELSSLRSEDTAFYYCVNGNPWLAYWGQGTLVTVSS
VL: DIQLTQSPSTLSASVGDRVTITCRASESLDNYGIRFLTWFQQKPGKAPKLLMYAASNQGSGVPSRFSGSGSGTEFTLTISSLQPDDFATYYCQQTKEVPWSFGQGTKVEVK
notes: In the alanine scan antibodies were used as IgG or Fab; also called hP67.6
For B1, the “Mean % WT Binding” value in assay [1] came to 86%; in assay [2], 89.4%; in assay [3], 93.5%; in [4], 94%; in assay [5], 85.8%; in [6], 92.3%. For the same molecule, the “Mean % WT Binding” value in [7] stood at 102%; in assay [8], 91.4%; in assay [9], 99.9%; in assay [10], 86.9%; in assay [11], 83.9%; in [12], 94.1%. In addition, the “Mean % WT Binding” value in [13] amounted to 104%; in assay [14] it was 95.4%; in assay [15], 100%; in assay [16], 115%; in assay [17], 85.8%; in assay [18], 81.4%. Moreover, the “Mean % WT Binding” value was 98.7% in assay [19], 111% in [20] and 90.8% in assay [21].

B2: Refmab #4 (antibody, V domains shown)
VH: QVQLVQSGAEVKKPGESVKVSCKASGYTFTNYGMNWVKQAPGQGLEWMGWINTYTGEPTYADKFQGRVTMTTDTSTSTAYMEIRNLGGDDTAVYYCARWSWSDGYYVYFDYWGQGTSVTVSS
VL: DIVMTQSPDSLTVSLGERTTINCKSSQSVLDSSTNKNSLAWYQQKPGQPPKLLLSWASTRESGIPDRFSGSGSGTDFTLTIDSPQPEDSATYYCQQSAHFPITFGQGTRLEIK
notes: The alanine scan used IgG or Fab
As to B2, the “Mean % WT Binding” value in [22] worked out at 97.5 % WT binding; in assay [23] it was 115 % WT binding; in [24], 108 % WT binding; in assay [25], 106 % WT binding; in assay [26] it was 99.9 % WT binding; in assay [27] it was 100 % WT binding. In addition, the “Mean % WT Binding” value stood at 97.3 % WT binding in [28]; 113 % WT binding in assay [29]; 115 % WT binding in [30]; 92.2 % WT binding in assay [31]; 102 % WT binding in assay [32]; 106 % WT binding in [33]. Moreover, the figures for the “Mean % WT Binding” value in [34], in [35] and in assay [36] were 97.9 % WT binding, 98.9 % WT binding and 104 % WT binding, respectively.

B3: Refmab #3 (antibody, V domains shown)
VH: QVQLVQSGAEVKKPGSSVKVSCKASGYTFTDYNMHWVRQAPGQGLEWIGYIYPYNGGTGYNQKFKSKATITADESTNTAYMELSSLRSEDTAVYYCARGRPAMDYWGQGTLVTVSS
VL: DIQMTQSPSSLSASVGDRVTITCRASESVDNYGISFMNWFQQKPGKAPKLLIYAASNQGSGVPSRFSGSGSGTDFTLTISSLQPDDFATYYCQQSKEVPWTFGQGTKVEIK
notes: In the alanine scan antibodies were used as IgG or Fab
B3: the “Mean % WT Binding” value was 107% in assay [1]; 106% in assay [2]; 100% in assay [3]; 112% in assay [4]; 127% in [5]; 95.5% in assay [6]. In addition, the “Mean % WT Binding” value was 85.1% in assay [7]; 80% in [8]; 92% in assay [9]; 95.2% in assay [10]; 105% in [11]; 105% in assay [12]. Besides, the “Mean % WT Binding” value in assay [13] came out at 114%; in assay [14], 83.2%; in assay [15] it was 153%; in assay [16] it was 146%; in assay [17] it was 88.7%; in [18], 120%. The results for the “Mean % WT Binding” value in assay [19], in assay [20] and in assay [21] were 85.6%, 97.9% and 138%, respectively.

B4: Refmab #3 (antibody, V domains shown)
VH: QVQLVQSGAEVKKPGSSVKVSCKASGYTFTDYNMHWVRQAPGQGLEWIGYIYPYNGGTGYNQKFKSKATITADESTNTAYMELSSLRSEDTAVYYCARGRPAMDYWGQGTLVTVSS
VL: DIQMTQSPSSLSASVGDRVTITCRASESVDNYGISFMNWFQQKPGKAPKLLIYAASNQGSGVPSRFSGSGSGTDFTLTISSLQPDDFATYYCQQSKEVPWTFGQGTKVEIK
notes: as for B2
B4: the “Mean % WT Binding” value in assay [22] turned out to be 93.3 % WT binding; in [23], 96.3 % WT binding; in assay [24], 98.1 % WT binding; in assay [25], 140 % WT binding; in [26], 116 % WT binding; in assay [27], 91.5 % WT binding. The “Mean % WT Binding” value in [28] was 125 % WT binding; in assay [29] it was 135 % WT binding; in assay [30] it was 125 % WT binding; in assay [31] it was 81.9 % WT binding; in [32], 97.5 % WT binding; in [33], 72.9 % WT binding. Also, the “Mean % WT Binding” value in assay [34] worked out at 93.9 % WT binding; in [35], 99.6 % WT binding; in assay [36], 115 % WT binding.

B5: Refmab #2 (antibody, V domains shown)
VH: QVQLVQSGAEVKKPGSSVKVSCKASGGTFSDYAISWVRQAPGQGLEWMGRIIPILGVADYAQKFQGRVTITADKSTRTAYMELSSLRSEDTAVYYCARNWADAFDIWGQGTMVTVSS
VL: DIQLTQSPSSLSASVGDRVTITCRASQGISSVLAWYQQKPGKAPKLLIYDASSLESGVPSRFSGSGSGTDFTLTISSLQPEDFATYYCQQFDSSITFGQGTKLEIK
notes: as for B3
On to B5, for which the “Mean % WT Binding” value worked out at 109% in assay [1]; 103% in assay [2]; 124% in assay [3]; 113% in assay [4]; 115% in assay [5]; 144% in [6]. In addition, the “Mean % WT Binding” value was 130% in assay [7]; 114% in [8]; 122% in [9]; 119% in [10]; 106% in [11]; 109% in [12]. In addition, the “Mean % WT Binding” value in [13] amounted to 132%; in assay [14], 102%; in assay [15] it was 112%; in assay [16], 107%; in [17], 117%; in assay [18], 108%. Further, the “Mean % WT Binding” value is 112% in assay [19], 111% in [20] and 90% in [21].
